Data taken from patent US11419948B2, “Functionalized microgels with fibrin binding elements” (Georgia Tech Research Corporation, priority 2013, dated 2022).

Experiments:
[1] = target: T1, fibrinogen (Homo sapiens, UniProt P02671+P02675+P02679); test: SPR on immobilized fibrinogen surface; format: binding
T1 sequence (P02671 20-629 limits assumed): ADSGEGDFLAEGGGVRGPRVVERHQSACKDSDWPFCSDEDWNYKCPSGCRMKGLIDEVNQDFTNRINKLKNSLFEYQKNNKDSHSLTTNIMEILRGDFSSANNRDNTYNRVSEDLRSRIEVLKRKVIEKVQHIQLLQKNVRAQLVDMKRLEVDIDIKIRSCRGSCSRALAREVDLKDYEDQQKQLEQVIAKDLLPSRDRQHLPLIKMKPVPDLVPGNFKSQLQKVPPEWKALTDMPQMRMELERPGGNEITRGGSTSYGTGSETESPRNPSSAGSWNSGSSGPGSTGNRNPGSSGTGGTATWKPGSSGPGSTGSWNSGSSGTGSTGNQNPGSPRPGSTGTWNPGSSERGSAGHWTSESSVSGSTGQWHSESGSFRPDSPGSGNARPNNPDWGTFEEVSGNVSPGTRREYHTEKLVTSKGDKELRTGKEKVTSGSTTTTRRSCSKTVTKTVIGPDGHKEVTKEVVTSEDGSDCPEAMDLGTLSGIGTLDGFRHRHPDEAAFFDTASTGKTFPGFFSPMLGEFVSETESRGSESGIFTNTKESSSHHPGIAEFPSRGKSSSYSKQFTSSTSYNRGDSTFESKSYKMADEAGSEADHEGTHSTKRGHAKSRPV
T1 sequence (P02675 31-491): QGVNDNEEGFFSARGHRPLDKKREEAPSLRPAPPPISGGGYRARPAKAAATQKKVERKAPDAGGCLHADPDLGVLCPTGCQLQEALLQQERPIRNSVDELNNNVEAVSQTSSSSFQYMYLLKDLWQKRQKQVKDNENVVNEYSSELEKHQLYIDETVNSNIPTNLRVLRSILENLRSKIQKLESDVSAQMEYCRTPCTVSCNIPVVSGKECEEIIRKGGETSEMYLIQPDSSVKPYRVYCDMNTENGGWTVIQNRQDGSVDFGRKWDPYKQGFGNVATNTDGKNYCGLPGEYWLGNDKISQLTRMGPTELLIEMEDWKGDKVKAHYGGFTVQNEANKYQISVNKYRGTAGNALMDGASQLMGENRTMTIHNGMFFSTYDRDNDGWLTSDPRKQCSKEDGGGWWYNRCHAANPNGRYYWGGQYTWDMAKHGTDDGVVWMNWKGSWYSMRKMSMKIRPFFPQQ
T1 sequence (P02679 27-453): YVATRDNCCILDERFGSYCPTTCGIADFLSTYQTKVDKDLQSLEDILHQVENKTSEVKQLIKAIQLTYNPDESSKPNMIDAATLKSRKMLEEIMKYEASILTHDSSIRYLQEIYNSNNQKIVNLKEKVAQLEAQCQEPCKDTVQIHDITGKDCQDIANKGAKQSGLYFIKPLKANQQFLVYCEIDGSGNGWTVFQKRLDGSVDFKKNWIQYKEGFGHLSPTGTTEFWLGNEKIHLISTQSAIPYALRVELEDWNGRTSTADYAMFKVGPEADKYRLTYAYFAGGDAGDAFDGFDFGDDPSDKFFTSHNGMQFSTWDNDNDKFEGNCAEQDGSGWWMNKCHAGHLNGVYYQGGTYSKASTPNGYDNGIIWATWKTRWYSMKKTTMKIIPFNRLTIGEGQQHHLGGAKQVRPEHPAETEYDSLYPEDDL
Description: (§1) Based on previous SPR protocols developed in the lab^4, a thin fibrin layer was immobilized on the surface of a gold SPR chip via layer-by-layer deposition of fibrinogen-thrombin-fibrinogen^3. SdFvs were flowed across the fibrin surface and the binding interactions were evaluated and recorded. Additionally, antibody fragment binding interactions with a surface of immobilized fibrinogen was used to investigate the specificity to fibrin. All SPR data was examined and analyzed with Scrubber 2 and Clamp XP (Center for Biomolecular Interactions Analysis, University of Utah). Data simulation curves were generated based on a Langmuir 1:1 binding model assuming only a single ligand-analyte interaction.

[2] = test system: human plasma components; test: Quantitative human plasma binding ELISA; settings: five 10-fold plasma dilutions
Description: The quantitative assay involved coating a 96-well high-binding plate with five different 10-fold plasma dilutions. H6, S11, or a positive-control anti-fibrinogen antibody were incubated in these wells to allow for binding with plasma components to occur. All wells were set-up in triplicate. After washing away unbound nanobody or antibody and treating with appropriate secondary antibodies and ELISA reagents, the amount of H6, S11 or anti-fibrinogen antibody remaining in each well was measured spectrophotomerically in a plate reader. All readings were normalized to wells in which PBS was incubated with plasma.

[3] = test system: fibrin E Regions; test: ELISA against adsorbed fibrin E Regions; format: binding; settings: E Region dilutions
Description: This was determined through ELISAs against plates coated with adsorbed fibrin D-Dimers or E Regions.
ELISA set-up and analysis was identical to that performed for the plasma-binding ELISA, the main exception being a substitution of human plasma dilutions for D-Dimer or E Region dilutions adsorbed to the 96-well plates. Both D-Dimer and […]

[4] = target: BSA (Bos taurus, UniProt P02769); test: SPR on BSA surface; format: binding
Text: FIG. 2A is an SPR sensorgram of thin fibrin layer immobilized on surface the SPR channel via NHS/EDC activated carboxylic acid terminated SAM with subsequent injections of fibrinogen (1), ethanolamine quencher (2), HEPES buffer+Tween 20 (3), thrombin (4), and fibrinogen+anti-thrombin+heparin (5). FIGS. 2B-2K are representative SPR sensorgrams of scFvs on fibrin layer (FIGS. 2B-2F) or BSA surface (FIGS. 2G-2K) for clones A2 (FIGS. 2B and 2G), A6 (FIGS. 2C and 2H), H6 (FIGS. 2D and 2I), B3 (FIGS. 2E and 2J), or non-specific control (FIGS. 2F and 2K). Experimental data is shown in black and fits are shown in dotted line.
as §1

Sequence of BSA (P02769 25-607): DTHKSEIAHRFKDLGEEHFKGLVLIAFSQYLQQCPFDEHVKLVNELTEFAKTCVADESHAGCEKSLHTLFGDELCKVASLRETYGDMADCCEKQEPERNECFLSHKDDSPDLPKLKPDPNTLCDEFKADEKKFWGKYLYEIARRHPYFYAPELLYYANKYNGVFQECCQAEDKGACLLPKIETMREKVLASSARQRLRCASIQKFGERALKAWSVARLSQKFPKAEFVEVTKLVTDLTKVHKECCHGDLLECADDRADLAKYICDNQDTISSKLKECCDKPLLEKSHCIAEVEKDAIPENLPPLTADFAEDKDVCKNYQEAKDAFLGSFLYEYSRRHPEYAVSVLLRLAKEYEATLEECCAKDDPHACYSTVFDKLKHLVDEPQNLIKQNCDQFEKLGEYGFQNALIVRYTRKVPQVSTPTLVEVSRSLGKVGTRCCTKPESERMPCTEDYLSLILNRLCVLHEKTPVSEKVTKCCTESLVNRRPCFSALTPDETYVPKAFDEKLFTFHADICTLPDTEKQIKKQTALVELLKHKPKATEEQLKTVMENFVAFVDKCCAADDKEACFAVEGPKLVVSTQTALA

B1: H6: fibrin-specific human sdFv clone from phage biopanning, SEQ ID NO: 1 (protein)
VHH: QVQLLESGGGLVQPGGSLRLSCAASGDRFTHNDMGWVRQAPGKGLEWVSTIPTTDGSTYYADSVKGRFTISRDNSKSTLYLQMNSLRAEDTAVYYCATGYMWKAPAYVKYWGQGTLVTVSSAAAEQKLISEEDLNSAAHYTDIG
negligible binding: binding to fibrinogen [1] | binding to plasma-coated plate [2] | binding to E Region [3] | binding to BSA [4]
